Measurements as given in patent publication US6387642.

How the values were obtained:
[1] = target: Cdc2-cyclin B1 complex containing the T14A mutant of Xenopus Cdc2
[2] = target: Cdc2-cyclin B1 complex containing the T14A,Y15F double mutant of Xenopus Cdc2
[3] = target: Cdc2-cyclin B1 complex containing the T161A mutant of Xenopus Cdc2
[4] = target: Cdc2-cyclin B1 complex containing the Y15F mutant of Xenopus Cdc2
[5] = target: Cdc2-cyclin B1 complex containing the triple mutant T14A,Y15F,N133A of Xenopus Cdc2
[6] = target: Purified recombinant Cdc2-cyclin B1 complex containing wild-type Xenopus Cdc2
[7] = target: Cdc2-cyclin B1 complex containing the T14A mutant of Xenopus Cdc2 (Xenopus); assay: cell-based or functional assay
[8] = target: Cdc2-cyclin B1 complex containing the Y15F mutant of Xenopus Cdc2 (Xenopus); assay: cell-based or functional assay
[9] = target: Cdc2-cyclin B1 complex containing the catalytically inactive N133A mutant of Xenopus Cdc2 (Xenopus); assay: cell-based or functional assay
[10] = target: Purified recombinant Cdc2-cyclin B1 complex containing wild-type Xenopus Cdc2 (Xenopus); assay: cell-based or functional assay
[11] = target: Cdc2-cyclin B1 complex containing the catalytically inactive N133A mutant of Xenopus Cdc2

B1: Recombinant histidine-tagged Myt1 purified from baculovirus-infected Sf9 cells (enzyme, not shown: small tags and cut ends)
chain: MPVPGDDMGETPLTRTPIPMPAYFSQAEQSFSLKKRGRSLCYTLPPRPPVKSALPVSRIFPNKQRSWSQPRPQSVSFRSPQNKTPASKLYDQSKGDTFFKQCFKSICKLGRGSFGEVYKVQSLEDGCFYAVKRSVSPFRGESDRQRKLQEVRKHERVGEHPNCLRFVRAWEEKRMLYLQTELCAGSLQQHSEEFAGSLPPRRVWNITCDLLHGLKHLHDRNLLHLDIKPANVFISFSGVCKLGDFGLMVELDGTEGSGEAQEGDPRYMAPELLDGIFSKAADVFSLGMSLLEVACNMELPKGGDGWQQLRQGHLPTEFTSDLPPDFLKVLSAMLEPDYRRRATVDWLLSLPAIRNAERWRMVTLAQERTLGKIIAVYQFIVWLLSFVFQWLNRPVIGFLHYCGLRALPRSPPCSPFPNHLGESSFSSDWDDESLGDDVFEVPPSPLATHRNLTYHGQELIGRHSPDLLSRPSLGSTSTPRNLSPEFSMRKRSALPLTPNVSRISQDSTGKSRSPSTSHSSSGFVDAEVQRTLFLPRNLLGMFDDATEQ
phosphorylation of Cdc2 mutant, autoradiography [1]: Myt1 can phosphorylate both the TI4A (Thr^14 changed to Ala) and Y15F (Tyr^15 changed to Phe) mutants of Cdc2 | reduction of Cdc2-associated histone H1 kinase activity [1]: a large reduction in activity (60 and 50%, respectively) | phosphorylation and H1 kinase activity [2]: the T14A, Y15F double mutant of Cdc2 was neither phosphorylated nor inactivated by Myt1 | phosphorylation of Cdc2 mutant, autoradiography [2]: the T14A,Y15F double mutant was not a substrate for Myt1 | phosphorylation of Cdc2 mutant, autoradiography [3]: Myt1 did not phosphorylate the T161A mutant of Cdc2 ( FIG. 2A ) on either tyrosine or threonine | phosphorylation of Cdc2 mutant, autoradiography [4]: Myt1 can phosphorylate both the TI4A (Thr^14 changed to Ala) and Y15F (Tyr^15 changed to Phe) mutants of Cdc2 | reduction of Cdc2-associated histone H1 kinase activity [4]: a large reduction in activity (60 and 50%, respectively) | phosphorylation of Cdc2 mutant, autoradiography [5]: the triple mutant T14A,Y15F, N133A was not a substrate for Myt1 | phosphorylation of Cdc2, compared with single mutants [6]: wild-type Cdc2 appears to be phosphorylated more efficiently than either single mutant | phosphorylation of Cdc2 in the presence of [γ-32P]ATP, autoradiography [6]: Recombinant Myt1 efficiently phosphorylated cyclin-associated, wild-type Cdc2 | reduction of Cdc2-associated histone H1 kinase activity [6]: Treatment of wild-type Cdc2 with Myt1 caused a 90% reduction in its H1 kinase activity | phosphorylation of Cdc2 in the presence of [γ-32P]ATP (monomeric Cdc2): Myt1 did not phosphorylate monomeric Cdc2 | phosphoamino acid analysis: share of label in phosphotyrosine [7]: 89% | phosphoamino acid analysis: share of 32P in phosphothreonine [8]: 96% | phosphoamino acid analysis: phosphoserine [9]: < 0.7% | phosphoamino acid analysis: phosphothreonine [9]: 75% | phosphoamino acid analysis: phosphotyrosine [9]: 24% | phosphoamino acid analysis: share of 32P in phosphothreonine [10]: 77% | phosphoamino acid analysis: share of 32P in phosphotyrosine [10]: 20%

B2: M phase form of endogenous Xenopus Myt1 (from cytostatic factor-arrested egg extract) (protein)
chain: B1 chain
Cdc2-specific kinase activity of immunoprecipitated Myt1, relative to the interphase form [11]: The M phase form was about one-fifth as active as the Myt1 protein from either type of interphase extract

B3: Endogenous Xenopus Myt1 from interphase egg extract (protein)
chain: B1 chain
phosphorylation of Cdc2 by immunoprecipitated Myt1 [6]: The immunoprecipitated Myt1 protein efficiently phosphorylated Cdc2 in both assays | share of Cdc2 shifted to its Thr14-Tyr15 doubly phosphorylated form by the Myt1-depleted extract [6]: the Myt1-depleted extract phosphorylated shifted only about 20% of the substrate | share of Cdc2 shifted to its Thr14-Tyr15 doubly phosphorylated form by the control extract [6]: the control extract shifted ˜80% of the Cdc2 to its Thr^14-Tyr^15 doubly phosphorylated form | tyrosine phosphorylation of Cdc2 in Myt1-depleted extract, anti-phosphotyrosine immunoblot [6]: The tyrosine phosphorylation of Cdc2 was dramatically reduced in the Myt1-depleted extract
